Common to all, as to assay: enzyme inhibition kinetics
The target in assay [1] is thrombin (UniProt P00734).
Assay [2] addresses single-chain tissue-type plasminogen activator.
For assay [3], the target named is plasmin (UniProt P00747).

Sequence of wild type plasminogen activator inhibitor-1 (recombinant, baculovirus system) (P05121 24-402): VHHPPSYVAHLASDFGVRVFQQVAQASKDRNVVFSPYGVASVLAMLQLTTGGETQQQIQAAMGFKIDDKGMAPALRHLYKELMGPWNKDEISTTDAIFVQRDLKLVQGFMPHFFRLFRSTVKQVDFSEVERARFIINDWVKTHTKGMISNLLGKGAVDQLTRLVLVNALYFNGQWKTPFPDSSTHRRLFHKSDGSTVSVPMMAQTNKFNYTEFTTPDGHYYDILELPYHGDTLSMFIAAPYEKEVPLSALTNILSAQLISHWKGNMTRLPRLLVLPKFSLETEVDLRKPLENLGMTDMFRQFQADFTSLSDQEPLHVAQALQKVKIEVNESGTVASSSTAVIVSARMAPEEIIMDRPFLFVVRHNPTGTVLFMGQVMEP

In the case of “wild type plasminogen activator inhibitor-1 (recombinant, baculovirus system) (from UniProt P05121 24-402) (natural protein)”, the second-order rate constant of inhibition in assay [1] was determined as 720 M⁻¹ s⁻¹; in assay [2] it was 2.11e+07 M⁻¹ s⁻¹; in assay [3] it was 31000 M⁻¹ s⁻¹.

Source of the values: PMC179894.
